Reference: patent US20230250154A1 (CYTONICS, published 2023)

Legend:
Experiment in all cases: cell-based or functional assay
ADAMTS4 = molecular target: T1, ADAMTS4 (human, UniProt O75173 213-685, limits assumed)
T1 sequence (looked up): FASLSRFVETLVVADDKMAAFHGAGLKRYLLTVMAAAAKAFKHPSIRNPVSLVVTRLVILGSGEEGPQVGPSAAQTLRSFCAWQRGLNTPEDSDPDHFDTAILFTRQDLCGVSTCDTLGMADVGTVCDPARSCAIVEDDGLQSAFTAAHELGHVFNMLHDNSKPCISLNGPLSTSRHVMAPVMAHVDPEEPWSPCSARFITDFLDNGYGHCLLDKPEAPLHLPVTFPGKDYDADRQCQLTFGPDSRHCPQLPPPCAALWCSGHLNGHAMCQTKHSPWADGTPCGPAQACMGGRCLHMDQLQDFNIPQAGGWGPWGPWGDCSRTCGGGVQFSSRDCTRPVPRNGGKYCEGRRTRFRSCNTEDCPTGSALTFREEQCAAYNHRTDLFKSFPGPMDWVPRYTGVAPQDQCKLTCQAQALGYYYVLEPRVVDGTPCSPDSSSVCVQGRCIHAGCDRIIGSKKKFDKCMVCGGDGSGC

MMP1 = molecular target: T2, MMP1 (human, UniProt P03956 100-469, limits assumed)
T2 sequence (looked up): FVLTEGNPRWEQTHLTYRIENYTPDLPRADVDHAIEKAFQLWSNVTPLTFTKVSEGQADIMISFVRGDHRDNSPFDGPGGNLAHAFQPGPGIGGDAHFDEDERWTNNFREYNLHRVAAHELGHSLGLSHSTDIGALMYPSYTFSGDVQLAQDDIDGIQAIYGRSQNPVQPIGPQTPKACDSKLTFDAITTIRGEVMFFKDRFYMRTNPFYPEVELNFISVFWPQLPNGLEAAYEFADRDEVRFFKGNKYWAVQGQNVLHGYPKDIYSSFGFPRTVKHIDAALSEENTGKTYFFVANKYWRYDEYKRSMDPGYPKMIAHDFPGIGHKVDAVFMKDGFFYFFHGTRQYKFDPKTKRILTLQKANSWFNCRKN

MMP13 = MMP13 (human, UniProt P45452 104-471, limits assumed)
MMP9 = MMP9 (human, UniProt P14780 107-707, limits assumed)
MMP2 = molecular target: T3, MMP2 (human, UniProt P08253 110-660, limits assumed)
T3 sequence (looked up): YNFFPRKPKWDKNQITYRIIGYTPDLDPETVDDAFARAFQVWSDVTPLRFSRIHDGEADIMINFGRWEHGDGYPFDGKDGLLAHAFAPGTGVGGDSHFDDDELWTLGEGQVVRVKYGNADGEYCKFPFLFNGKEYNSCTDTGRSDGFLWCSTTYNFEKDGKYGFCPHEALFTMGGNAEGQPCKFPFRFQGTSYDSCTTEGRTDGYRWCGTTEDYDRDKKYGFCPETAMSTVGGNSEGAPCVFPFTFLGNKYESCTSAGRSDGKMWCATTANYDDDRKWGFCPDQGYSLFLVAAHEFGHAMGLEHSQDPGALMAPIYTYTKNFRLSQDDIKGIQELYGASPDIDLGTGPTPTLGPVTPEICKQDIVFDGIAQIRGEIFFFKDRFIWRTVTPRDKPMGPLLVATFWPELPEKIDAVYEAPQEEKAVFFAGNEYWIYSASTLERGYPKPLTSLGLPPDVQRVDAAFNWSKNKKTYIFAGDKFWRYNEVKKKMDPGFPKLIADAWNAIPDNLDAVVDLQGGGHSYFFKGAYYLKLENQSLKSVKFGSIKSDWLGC

ADAMTS5 = molecular target: T4, ADAMTS5 (human, UniProt Q9UNA0 262-622, limits assumed)
T4 sequence (looked up): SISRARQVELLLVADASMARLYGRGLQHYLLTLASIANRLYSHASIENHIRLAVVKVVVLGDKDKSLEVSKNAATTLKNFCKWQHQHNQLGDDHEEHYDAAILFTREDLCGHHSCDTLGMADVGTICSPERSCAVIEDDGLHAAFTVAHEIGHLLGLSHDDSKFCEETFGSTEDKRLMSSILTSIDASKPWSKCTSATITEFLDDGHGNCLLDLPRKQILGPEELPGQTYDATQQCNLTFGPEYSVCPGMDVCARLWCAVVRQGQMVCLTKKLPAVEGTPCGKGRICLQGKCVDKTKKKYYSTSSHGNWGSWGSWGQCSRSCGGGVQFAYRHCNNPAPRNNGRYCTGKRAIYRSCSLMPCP

Cathepsin G = molecular target: T5, Cathepsin G (UniProt P08311 21-244)
T5 sequence (looked up): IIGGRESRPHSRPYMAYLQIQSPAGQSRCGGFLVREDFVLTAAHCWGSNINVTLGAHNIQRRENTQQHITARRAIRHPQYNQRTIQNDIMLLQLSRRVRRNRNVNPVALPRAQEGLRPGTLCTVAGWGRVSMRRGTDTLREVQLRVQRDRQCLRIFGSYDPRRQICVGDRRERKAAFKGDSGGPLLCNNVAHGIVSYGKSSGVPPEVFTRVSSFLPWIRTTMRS

MMP3 = MMP3 (human, UniProt P08254 100-477, limits assumed)
Elastase = molecular target: Elastase
MMP8 = MMP8 (human, UniProt P22894 101-467, limits assumed)
MMP7 = molecular target: T6, MMP7 (UniProt P09237 95-267, limits assumed)
T6 sequence (looked up): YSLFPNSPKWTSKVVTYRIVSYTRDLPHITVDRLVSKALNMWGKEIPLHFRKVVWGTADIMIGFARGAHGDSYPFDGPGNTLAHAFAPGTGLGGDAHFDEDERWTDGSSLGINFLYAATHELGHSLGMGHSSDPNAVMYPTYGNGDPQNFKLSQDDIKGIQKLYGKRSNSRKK

MMP8, sequence (P22894 101-467 limits assumed): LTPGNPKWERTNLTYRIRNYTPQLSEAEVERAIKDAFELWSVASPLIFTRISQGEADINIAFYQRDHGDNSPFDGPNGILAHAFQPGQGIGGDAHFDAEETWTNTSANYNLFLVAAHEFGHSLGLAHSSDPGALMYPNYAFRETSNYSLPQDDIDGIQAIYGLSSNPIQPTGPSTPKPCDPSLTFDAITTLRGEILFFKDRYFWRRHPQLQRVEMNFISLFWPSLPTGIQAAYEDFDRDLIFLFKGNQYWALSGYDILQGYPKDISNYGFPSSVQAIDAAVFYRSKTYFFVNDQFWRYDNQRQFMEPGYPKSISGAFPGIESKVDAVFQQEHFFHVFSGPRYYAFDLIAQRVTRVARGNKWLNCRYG
MMP3, sequence (P08254 100-477 limits assumed): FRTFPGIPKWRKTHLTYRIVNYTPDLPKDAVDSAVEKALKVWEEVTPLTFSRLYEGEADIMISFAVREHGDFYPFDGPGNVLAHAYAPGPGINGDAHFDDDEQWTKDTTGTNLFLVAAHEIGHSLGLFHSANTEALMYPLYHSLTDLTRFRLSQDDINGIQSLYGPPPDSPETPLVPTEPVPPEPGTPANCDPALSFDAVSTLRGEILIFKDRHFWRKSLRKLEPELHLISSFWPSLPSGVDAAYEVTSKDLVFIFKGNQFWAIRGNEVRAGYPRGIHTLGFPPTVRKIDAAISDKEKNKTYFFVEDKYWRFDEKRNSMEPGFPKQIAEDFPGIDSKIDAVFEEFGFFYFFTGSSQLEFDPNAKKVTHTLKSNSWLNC
MMP9, sequence (P14780 107-707 limits assumed): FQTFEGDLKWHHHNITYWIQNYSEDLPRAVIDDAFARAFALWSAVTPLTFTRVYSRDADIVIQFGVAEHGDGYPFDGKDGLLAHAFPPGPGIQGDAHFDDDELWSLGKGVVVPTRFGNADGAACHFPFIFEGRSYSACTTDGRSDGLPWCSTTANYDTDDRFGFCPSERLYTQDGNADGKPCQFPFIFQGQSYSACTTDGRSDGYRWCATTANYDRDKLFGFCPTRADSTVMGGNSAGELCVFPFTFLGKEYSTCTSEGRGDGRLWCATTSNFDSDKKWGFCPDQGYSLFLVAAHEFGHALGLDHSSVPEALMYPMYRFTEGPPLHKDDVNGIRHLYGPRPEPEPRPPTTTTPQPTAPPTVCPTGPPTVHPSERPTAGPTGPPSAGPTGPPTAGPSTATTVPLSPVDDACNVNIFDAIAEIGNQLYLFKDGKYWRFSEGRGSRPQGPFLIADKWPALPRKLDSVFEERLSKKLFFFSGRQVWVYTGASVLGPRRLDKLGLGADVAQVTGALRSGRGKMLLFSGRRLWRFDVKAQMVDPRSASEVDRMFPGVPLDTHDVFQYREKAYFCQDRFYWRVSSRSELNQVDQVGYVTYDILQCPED

Binder	Protease Inhibition (% of WT) (ADAMTS4)	Protease Inhibition (% of WT) (MMP1)	Protease Inhibition (% of WT) (MMP13)	Protease Inhibition (% of WT) (MMP9)	Protease Inhibition (% of WT) (MMP2)	Protease Inhibition (% of WT) (ADAMTS5)	Protease Inhibition (% of WT) (Cathepsin G)	Protease Inhibition (% of WT) (MMP3)	Protease Inhibition (% of WT) (Elastase)	Protease Inhibition (% of WT) (MMP8)	Protease Inhibition (% of WT) (MMP7)
Variant A2M, bait region SEQ ID NO 21 (other) SVSGKPQYMVLVPSLLHTETTEKGCVLLSYLNETVTVSASLESVRGNRSLFTDLEAENDVLHCVAFAVPKSSSNEEVMFLTVQVKGPTQEFKKRTTVMVKNEDSLVFVQTDKSIYKPGQTVKFRVVSMDENFHPLNELIPLVYIQDPKGNRIAQWQSFQLEGGLKQFSFPLSSEPFQGSYKVVVQKKSGGRTEHPFTVEEFVLPKFEVQVTVPKIITILEEEMNVSVCGLYTYGKPVPGHVTVSICRKYSDASDCHGEDSQAFCEKFSGQLNSHGCFYQQVKTKVFQLKRKEYEMKLHTEAQIQEEGTVVELTGRQSSEITRTITKLSFVKVDSHFRQGIPFFGQVRLVDGKGVPIPNKVIFIRGNEANYYSNATTDEHGLVQFSINTTNVMGTSLTVRVNYKDRSPCYGYQWVSEEHEEAHHTAYLVFSPSKSFVHLEPMSHELPCGHTQTVQAHYILNGGTLLGLKKLSFYYLIMAKGGIVRTGTHGLLVKQEDMKGHFSISIPVKSDIAPVARLLIYAVLPTGDVIGDSAKYDVENCLANKVDLSFSPSQSLPASHAHLRVTAAPQSVCALRAVDQSVLLMKPDAELSASSVYNLLPEKDLTGFPGPLNDQDDEDCINRHNVYINGITYTPVSSTNEKDMYSFLEDMGLKAFTNSKIRKPKMCPQLEHGPTEGEARGSPRYLTAIPENFYGVSEDLVVQISELEGRGSPHTKLRKYFPETWIWDLVVVNSAGVAEVGVTVPDTITEWKAGAFCLSEDAGLGISSTASLRAFQPFFVELTMPYSVIRGEAFTLKATVLNYLPKCIRVSVQLEASPAFLAVPVEKEQAPHCICANGRQTVSWAVTPKSLGNVNFTVSAEALESQELCGTEVPSVPEHGRKDTVIKPLLVEPEGLEKETTFNSLLCPSGGEVSEELSLKLPPNVVEESARASVSVLGDILGSAMQNTQNLLQMPYGCGEQNMVLFAPNIYVLDYLNETQQLTPEIKSKAIGYLNTGYQRQLNYKHYDGSYSTFGERYGRNQGNTWLTAFVLKTFAQARAYIFIDEAHITQALIWLSQRQKDNGCFRSSGSLLNNAIKGGVEDEVTLSAYITIALLEIPLTVTHPVVRNALFCLESAWKTAQEGDHGSHVYTKALLAYAFALAGNQDKRKEVLKSLNEEAVKKDNSVHWERPQKPKAPVGHFYEPQAPSAEVEMTSYVLLAYLTAQPAPTSEDLTSATNIVKWITKQQNAQGGFSSTQDTVVALHALSKYGAATFTRTGKAAQVTIQSSGTFSSKFQVDNNNRLLLQQVSLPELPGEYSMKVTGEGCVYLQTSLKYNILPEKEEFPFALGVQTLPQTCDEPKAHTSFQISLSVSYTGSRSASNMAIVDVKMVSGFIPLKPTVKMLERSNHVSRTEVSSNHVLIYLDKVSNQTLSLFFTVLQDVPVRDLKPAIVKVYDYYETDEFAIAEYNAPCSKDLGNADYKDDDDKGASHHHHHH	68 % of WT	84 % of WT	46 % of WT	45 % of WT	66 % of WT	217 % of WT	58 % of WT	26 % of WT	59 % of WT	39 % of WT	94 % of WT
Variant A2M, bait region SEQ ID NO 22 (other) SVSGKPQYMVLVPSLLHTETTEKGCVLLSYLNETVTVSASLESVRGNRSLFTDLEAENDVLHCVAFAVPKSSSNEEVMFLTVQVKGPTQEFKKRTTVMVKNEDSLVFVQTDKSIYKPGQTVKFRVVSMDENFHPLNELIPLVYIQDPKGNRIAQWQSFQLEGGLKQFSFPLSSEPFQGSYKVVVQKKSGGRTEHPFTVEEFVLPKFEVQVTVPKIITILEEEMNVSVCGLYTYGKPVPGHVTVSICRKYSDASDCHGEDSQAFCEKFSGQLNSHGCFYQQVKTKVFQLKRKEYEMKLHTEAQIQEEGTVVELTGRQSSEITRTITKLSFVKVDSHFRQGIPFFGQVRLVDGKGVPIPNKVIFIRGNEANYYSNATTDEHGLVQFSINTTNVMGTSLTVRVNYKDRSPCYGYQWVSEEHEEAHHTAYLVFSPSKSFVHLEPMSHELPCGHTQTVQAHYILNGGTLLGLKKLSFYYLIMAKGGIVRTGTHGLLVKQEDMKGHFSISIPVKSDIAPVARLLIYAVLPTGDVIGDSAKYDVENCLANKVDLSFSPSQSLPASHAHLRVTAAPQSVCALRAVDQSVLLMKPDAELSASSVYNLLPEKDLTGFPGPLNDQDDEDCINRHNVYINGITYTPVSSTNEKDMYSFLEDMGLKAFTNSKIRKPKMCPQLEHGPEGEGEGEFRGVTIPENFFGVPRYLTASEDLVVQISELEGRGSPHTKLRKYFPETWIWDLVVVNSAGVAEVGVTVPDTITEWKAGAFCLSEDAGLGISSTASLRAFQPFFVELTMPYSVIRGEAFTLKATVLNYLPKCIRVSVQLEASPAFLAVPVEKEQAPHCICANGRQTVSWAVTPKSLGNVNFTVSAEALESQELCGTEVPSVPEHGRKDTVIKPLLVEPEGLEKETTFNSLLCPSGGEVSEELSLKLPPNVVEESARASVSVLGDILGSAMQNTQNLLQMPYGCGEQNMVLFAPNIYVLDYLNETQQLTPEIKSKAIGYLNTGYQRQLNYKHYDGSYSTFGERYGRNQGNTWLTAFVLKTFAQARAYIFIDEAHITQALIWLSQRQKDNGCFRSSGSLLNNAIKGGVEDEVTLSAYITIALLEIPLTVTHPVVRNALFCLESAWKTAQEGDHGSHVYTKALLAYAFALAGNQDKRKEVLKSLNEEAVKKDNSVHWERPQKPKAPVGHFYEPQAPSAEVEMTSYVLLAYLTAQPAPTSEDLTSATNIVKWITKQQNAQGGFSSTQDTVVALHALSKYGAATFTRTGKAAQVTIQSSGTFSSKFQVDNNNRLLLQQVSLPELPGEYSMKVTGEGCVYLQTSLKYNILPEKEEFPFALGVQTLPQTCDEPKAHTSFQISLSVSYTGSRSASNMAIVDVKMVSGFIPLKPTVKMLERSNHVSRTEVSSNHVLIYLDKVSNQTLSLFFTVLQDVPVRDLKPAIVKVYDYYETDEFAIAEYNAPCSKDLGNADYKDDDDKGASHHHHHH	104 % of WT	68 % of WT	93 % of WT	30 % of WT	42 % of WT	316 % of WT	78 % of WT	265 % of WT	92 % of WT	54 % of WT	75 % of WT
